# B1: Pistol ribozyme (parent)
# chain: GGGUCGUUGUUCCAUAAUCGCGUGGAUAUGGCACGCAAGUUUCUACCGGGCACCGUAAAUGUCCGACUGGAGCCGUUCGGGCGGCUAUAAACAGACCUCAGGCCCGAAGCGUGGCGGCACCUGCCGCCGGUGGUAAAAAAGAUCGGAAGAGCACACGUCU
# Variants of: B1
# Assay: aptazyme ON/OFF ratio, guanine; higher = stronger switching; co-transcriptional cleavage with and without guanine
row,Variant,aptazyme ON/OFF ratio
1,GGGUCGAACUCACAUAAUCGCGUGGAUAUGGCACGCAAGUUUCUACCGGGCACCGUAAAUGUCCGACUGGAGCCGUUCGGGCGGCUAUAAACAGACCUCAGGCCCGAAGCGUGGCGGCACCUGCCGCCGGUGGUAAAAAAGAUCGGAAGAGCACACGUCU,1.07
2,GGGUCGAACUCUCAUAAUCGCGUGGAUAUGGCACGCAAGUUUCUACCGGGCACCGUAAAUGUCCGACUGGAGCCGUUCGGGCGGCUAUAAACAGACCUCAGGCCCGAAGCGUGGCGGCACCUGCCGCCGGUGGUAAAAAAGAUCGGAAGAGCACACGUCU,1.09
3,GGGUCGAACUCGCAUAAUCGCGUGGAUAUGGCACGCAAGUUUCUACCGGGCACCGUAAAUGUCCGACUGGAGCCGUUCGGGCGGCUAUAAACAGACCUCAGGCCCGAAGCGUGGCGGCACCUGCCGCCGGUGGUAAAAAAGAUCGGAAGAGCACACGUCU,1.1
4,GGGUCGAACUCAGAUAAUCGCGUGGAUAUGGCACGCAAGUUUCUACCGGGCACCGUAAAUGUCCGACUGGAGCCGUUCGGGCGGCUAUAAACAGACCUCAGGCCCGAAGCGUGGCGGCACCUGCCGCCGGUGGUAAAAAAGAUCGGAAGAGCACACGUCU,1.07
5,GGGUCGAACUCAAAUAAUCGCGUGGAUAUGGCACGCAAGUUUCUACCGGGCACCGUAAAUGUCCGACUGGAGCCGUUCGGGCGGCUAUAAACAGACCUCAGGCCCGAAGCGUGGCGGCACCUGCCGCCGGUGGUAAAAAAGAUCGGAAGAGCACACGUCU,1.08
6,GGGUCGAACUCAUAUAAUCGCGUGGAUAUGGCACGCAAGUUUCUACCGGGCACCGUAAAUGUCCGACUGGAGCCGUUCGGGCGGCUAUAAACAGACCUCAGGCCCGAAGCGUGGCGGCACCUGCCGCCGGUGGUAAAAAAGAUCGGAAGAGCACACGUCU,1.05
7,GGGUCGAACGGUCAUAAUCGCGUGGAUAUGGCACGCAAGUUUCUACCGGGCACCGUAAAUGUCCGACUGGAGCCGUUCGGGCGGCUAUAAACAGACCUCAGGCCCGAAGCGUGGCGGCACCUGCCGCCGGUGGUAAAAAAGAUCGGAAGAGCACACGUCU,1.39
8,GGGUCGAACGGGUAUAAUCGCGUGGAUAUGGCACGCAAGUUUCUACCGGGCACCGUAAAUGUCCGACUGGAGCCGUUCGGGCGGCUAUAAACAGACCUCAGGCCCGAAGCGUGGCGGCACCUGCCGCCGGUGGUAAAAAAGAUCGGAAGAGCACACGUCU,1.21
9,GGGUCGAACGGGAAUAAUCGCGUGGAUAUGGCACGCAAGUUUCUACCGGGCACCGUAAAUGUCCGACUGGAGCCGUUCGGGCGGCUAUAAACAGACCUCAGGCCCGAAGCGUGGCGGCACCUGCCGCCGGUGGUAAAAAAGAUCGGAAGAGCACACGUCU,1.2
10,GGGUCGAACGGGGAUAAUCGCGUGGAUAUGGCACGCAAGUUUCUACCGGGCACCGUAAAUGUCCGACUGGAGCCGUUCGGGCGGCUAUAAACAGACCUCAGGCCCGAAGCGUGGCGGCACCUGCCGCCGGUGGUAAAAAAGAUCGGAAGAGCACACGUCU,1.13
11,GGGUCGAACUCGAAUAAUCGCGUGGAUAUGGCACGCAAGUUUCUACCGGGCACCGUAAAUGUCCGACUGGAGCCGUUCGGGCGGCUAUAAACAGACCUCAGGCCCGAAGCGUGGCGGCACCUGCCGCCGGUGGUAAAAAAGAUCGGAAGAGCACACGUCU,1.06
12,GGGUCGAACUCGGAUAAUCGCGUGGAUAUGGCACGCAAGUUUCUACCGGGCACCGUAAAUGUCCGACUGGAGCCGUUCGGGCGGCUAUAAACAGACCUCAGGCCCGAAGCGUGGCGGCACCUGCCGCCGGUGGUAAAAAAGAUCGGAAGAGCACACGUCU,1.07
13,GGGUCGAACUCGUAUAAUCGCGUGGAUAUGGCACGCAAGUUUCUACCGGGCACCGUAAAUGUCCGACUGGAGCCGUUCGGGCGGCUAUAAACAGACCUCAGGCCCGAAGCGUGGCGGCACCUGCCGCCGGUGGUAAAAAAGAUCGGAAGAGCACACGUCU,1.07
14,GGGUCGAACUACUAUAAUCGCGUGGAUAUGGCACGCAAGUUUCUACCGGGCACCGUAAAUGUCCGACUGGAGCCGUUCGGGCGGCUAUAAACAGACCUCAGGCCCGAAGCGUGGCGGCACCUGCCGCCGGUGGUAAAAAAGAUCGGAAGAGCACACGUCU,1.17
15,GGGUCGAACUACAAUAAUCGCGUGGAUAUGGCACGCAAGUUUCUACCGGGCACCGUAAAUGUCCGACUGGAGCCGUUCGGGCGGCUAUAAACAGACCUCAGGCCCGAAGCGUGGCGGCACCUGCCGCCGGUGGUAAAAAAGAUCGGAAGAGCACACGUCU,1.21
16,GGGUCGAACUACGAUAAUCGCGUGGAUAUGGCACGCAAGUUUCUACCGGGCACCGUAAAUGUCCGACUGGAGCCGUUCGGGCGGCUAUAAACAGACCUCAGGCCCGAAGCGUGGCGGCACCUGCCGCCGGUGGUAAAAAAGAUCGGAAGAGCACACGUCU,1.06
17,GGGUCGAACUAUAAUAAUCGCGUGGAUAUGGCACGCAAGUUUCUACCGGGCACCGUAAAUGUCCGACUGGAGCCGUUCGGGCGGCUAUAAACAGACCUCAGGCCCGAAGCGUGGCGGCACCUGCCGCCGGUGGUAAAAAAGAUCGGAAGAGCACACGUCU,1.1
18,GGGUCGAACUAUGAUAAUCGCGUGGAUAUGGCACGCAAGUUUCUACCGGGCACCGUAAAUGUCCGACUGGAGCCGUUCGGGCGGCUAUAAACAGACCUCAGGCCCGAAGCGUGGCGGCACCUGCCGCCGGUGGUAAAAAAGAUCGGAAGAGCACACGUCU,1.14

row,Variant,aptazyme ON/OFF ratio
1,GGGUCGAACUAUUAUAAUCGCGUGGAUAUGGCACGCAAGUUUCUACCGGGCACCGUAAAUGUCCGACUGGAGCCGUUCGGGCGGCUAUAAACAGACCUCAGGCCCGAAGCGUGGCGGCACCUGCCGCCGGUGGUAAAAAAGAUCGGAAGAGCACACGUCU,1.2
2,GGGUCGAACUAAGAUAAUCGCGUGGAUAUGGCACGCAAGUUUCUACCGGGCACCGUAAAUGUCCGACUGGAGCCGUUCGGGCGGCUAUAAACAGACCUCAGGCCCGAAGCGUGGCGGCACCUGCCGCCGGUGGUAAAAAAGAUCGGAAGAGCACACGUCU,1.18
3,GGGUCGAACUAAUAUAAUCGCGUGGAUAUGGCACGCAAGUUUCUACCGGGCACCGUAAAUGUCCGACUGGAGCCGUUCGGGCGGCUAUAAACAGACCUCAGGCCCGAAGCGUGGCGGCACCUGCCGCCGGUGGUAAAAAAGAUCGGAAGAGCACACGUCU,1.15
4,GGGUCGAACUAAAAUAAUCGCGUGGAUAUGGCACGCAAGUUUCUACCGGGCACCGUAAAUGUCCGACUGGAGCCGUUCGGGCGGCUAUAAACAGACCUCAGGCCCGAAGCGUGGCGGCACCUGCCGCCGGUGGUAAAAAAGAUCGGAAGAGCACACGUCU,1.08
5,GGGUCGAACUAGUAUAAUCGCGUGGAUAUGGCACGCAAGUUUCUACCGGGCACCGUAAAUGUCCGACUGGAGCCGUUCGGGCGGCUAUAAACAGACCUCAGGCCCGAAGCGUGGCGGCACCUGCCGCCGGUGGUAAAAAAGAUCGGAAGAGCACACGUCU,1.21
6,GGGUCGAACUAGGAUAAUCGCGUGGAUAUGGCACGCAAGUUUCUACCGGGCACCGUAAAUGUCCGACUGGAGCCGUUCGGGCGGCUAUAAACAGACCUCAGGCCCGAAGCGUGGCGGCACCUGCCGCCGGUGGUAAAAAAGAUCGGAAGAGCACACGUCU,1.2
7,GGGUCGAACUAGAAUAAUCGCGUGGAUAUGGCACGCAAGUUUCUACCGGGCACCGUAAAUGUCCGACUGGAGCCGUUCGGGCGGCUAUAAACAGACCUCAGGCCCGAAGCGUGGCGGCACCUGCCGCCGGUGGUAAAAAAGAUCGGAAGAGCACACGUCU,1.15
8,GGGUCGAACGGCGAUAAUCGCGUGGAUAUGGCACGCAAGUUUCUACCGGGCACCGUAAAUGUCCGACUGGAGCCGUUCGGGCGGCUAUAAACAGACCUCAGGCCCGAAGCGUGGCGGCACCUGCCGCCGGUGGUAAAAAAGAUCGGAAGAGCACACGUCU,1.18
9,GGGUCGAACGGCUAUAAUCGCGUGGAUAUGGCACGCAAGUUUCUACCGGGCACCGUAAAUGUCCGACUGGAGCCGUUCGGGCGGCUAUAAACAGACCUCAGGCCCGAAGCGUGGCGGCACCUGCCGCCGGUGGUAAAAAAGAUCGGAAGAGCACACGUCU,1.48
10,GGGUCGAACGGCAAUAAUCGCGUGGAUAUGGCACGCAAGUUUCUACCGGGCACCGUAAAUGUCCGACUGGAGCCGUUCGGGCGGCUAUAAACAGACCUCAGGCCCGAAGCGUGGCGGCACCUGCCGCCGGUGGUAAAAAAGAUCGGAAGAGCACACGUCU,1.28
11,GGGUCGAACGGUUAUAAUCGCGUGGAUAUGGCACGCAAGUUUCUACCGGGCACCGUAAAUGUCCGACUGGAGCCGUUCGGGCGGCUAUAAACAGACCUCAGGCCCGAAGCGUGGCGGCACCUGCCGCCGGUGGUAAAAAAGAUCGGAAGAGCACACGUCU,1.18
12,GGGUCGAACGGUGAUAAUCGCGUGGAUAUGGCACGCAAGUUUCUACCGGGCACCGUAAAUGUCCGACUGGAGCCGUUCGGGCGGCUAUAAACAGACCUCAGGCCCGAAGCGUGGCGGCACCUGCCGCCGGUGGUAAAAAAGAUCGGAAGAGCACACGUCU,1.15
13,GGGUCGAACGGUAAUAAUCGCGUGGAUAUGGCACGCAAGUUUCUACCGGGCACCGUAAAUGUCCGACUGGAGCCGUUCGGGCGGCUAUAAACAGACCUCAGGCCCGAAGCGUGGCGGCACCUGCCGCCGGUGGUAAAAAAGAUCGGAAGAGCACACGUCU,1.17
14,GGGUCGAACUAGCAUAAUCGCGUGGAUAUGGCACGCAAGUUUCUACCGGGCACCGUAAAUGUCCGACUGGAGCCGUUCGGGCGGCUAUAAACAGACCUCAGGCCCGAAGCGUGGCGGCACCUGCCGCCGGUGGUAAAAAAGAUCGGAAGAGCACACGUCU,1.19
15,GGGUCGAACUAACAUAAUCGCGUGGAUAUGGCACGCAAGUUUCUACCGGGCACCGUAAAUGUCCGACUGGAGCCGUUCGGGCGGCUAUAAACAGACCUCAGGCCCGAAGCGUGGCGGCACCUGCCGCCGGUGGUAAAAAAGAUCGGAAGAGCACACGUCU,1.22
16,GGGUCGAACUAUCAUAAUCGCGUGGAUAUGGCACGCAAGUUUCUACCGGGCACCGUAAAUGUCCGACUGGAGCCGUUCGGGCGGCUAUAAACAGACCUCAGGCCCGAAGCGUGGCGGCACCUGCCGCCGGUGGUAAAAAAGAUCGGAAGAGCACACGUCU,1.2
17,GGGUCGAACUACCAUAAUCGCGUGGAUAUGGCACGCAAGUUUCUACCGGGCACCGUAAAUGUCCGACUGGAGCCGUUCGGGCGGCUAUAAACAGACCUCAGGCCCGAAGCGUGGCGGCACCUGCCGCCGGUGGUAAAAAAGAUCGGAAGAGCACACGUCU,1.25
18,GGGUCGAACUCCCAUAAUCGCGUGGAUAUGGCACGCAAGUUUCUACCGGGCACCGUAAAUGUCCGACUGGAGCCGUUCGGGCGGCUAUAAACAGACCUCAGGCCCGAAGCGUGGCGGCACCUGCCGCCGGUGGUAAAAAAGAUCGGAAGAGCACACGUCU,1.05

# — the RNAGym collection of RNA variant scans (doi:10.1021/acssynbio.7b00057)
